These results are taken from US11008402 (dated 2021).

One assay has as its target CD3 (Jurkat cells) (human, UniProt P07766). The experiment in a line: FACS, Jurkat. In general terms: In flow cytometry, cells or beads pass a laser one at a time.
For assay [1], the target named is HER3-Fc ECD (human). The experiment in a line: ELISA. For orientation: In an ELISA, binding on a coated surface is turned into a signal by an enzyme label.
Assay [2] has as its target HER3 (cell surface) (human). The experiment in a line: FACS, A375.
Assay [3] concerns the target HER3-His ECD (human). The experiment in a line: ELISA.
The target in assay [4] is HER3 (cell surface) (human). The experiment in a line: FACS, MCF-7.
The target in assay [5] is HER3-Fc ECD (human). The experiment in a line: ELISA. The source holds these as a separate data set.
The target in assay [6] is HER3 (cell surface) (human). The experiment in a line: FACS, MCF-7 (Example 22).
Assay [7] addresses HER3-His ECD (human). The experiment in a line: ELISA. The source holds these as a separate data set.
Another assay concerns the target EGFR ECD (human, UniProt P00533). The experiment in a line: ELISA.
A further assay concerns the target EGFR (cell surface) (human, UniProt P00533). The experiment in a line: FACS, FaDu (EGFR and HER3 positive).

In general, EC50 refers to the concentration giving half of the maximal effect. Read a high EC50 as weaker potency.

Several values for one entry are separate records, joined by “and”; a condition that tells them apart may be missing. Equal entries are not always repeated. Where two headings read alike, the source gives them in different places.

Sequence of CD3 (Jurkat cells) (P07766 23-207): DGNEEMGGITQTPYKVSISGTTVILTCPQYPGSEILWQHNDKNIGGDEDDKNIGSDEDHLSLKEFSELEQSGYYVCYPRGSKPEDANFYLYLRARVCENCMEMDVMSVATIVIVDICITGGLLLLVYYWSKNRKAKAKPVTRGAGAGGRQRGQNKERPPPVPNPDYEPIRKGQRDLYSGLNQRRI

B1: scFv3-43-scDb3-43xhuU3-scFv3-43, CD3 arm (antibody)
chain: METDTLLLWVLLLWVPGSTGQVQLQQSGPGLVKPSQTLSLTCAISGDSVSSNRAAWNWIRQSPSRGLEWLGRTYYRSKWYNDYAQSLKSRITINPDTPKNQFSLQLNSVTPEDTAVYYCARDGQLGLDALDIWGQGTMVTVSSGGGGSDIQMTQSPSSLSASVGDRVTITCRASQDIRNYLNWYQQKPGKAPKLLIYYTSRLHSGVPSRFSGSGSGTDFTFTISSLQPEDIATYYCQQGNTLPWTFGQGTKLEIKRGGGGSGGGGSGGGGSQVQLVQSGAEVKKPGSSVKVSCKASGGTFSGYTMNWVRQAPGQGLEWMGLINPYKGVSTYNGKFKDRVTITADKSTSTAYMELSSLRSEDTAVYYCARSGYYGDSDWYFDVWGQGTLVTVSSGGGGSQAGLTQPPAVSVAPGQTASITCGRDNIGSRSVHWYQQKPGQAPVLVVYDDSDRPAGIPERFSGSNYENTATLTISRVEAGDEADYYCQVWGITSDHVVFGGGTKLTVLAAAGGSGGGGSGGGTQVQLQQSGPGLVKPSQTLSLTCAISGDSVSSNRAAWNWIRQSPSRGLEWLGRTYYRSKWYNDYAQSLKSRITINPDTPKNQFSLQLNSVTPEDTAVYYCARDGQLGLDALDIWGQGTMVTVSSGGGGSGGGGSGGGGSQAGLTQPPAVSVAPGQTASITCGRDNIGSRSVHWYQQKPGQAPVLVVYDDSDRPAGIPERFSGSNYENTATLTISRVEAGDEADYYCQVWGITSDHVVFGGGTKLTVLGSL
For the molecule B1, in the assay with CD3 (Jurkat cells), the concentration giving a half-maximal response (EC50) amounted to 5.2 nM.

B2: scFv3-43-Fc-scTRAIL, HER3 arm (antibody)
chain: QVQLQQSGPGLVKPSQTLSLTCAISGDSVSSNRAAWNWIRQSPSRGLEWLGRTYYRSKWYNDYAQSLKSRITINPDTPKNQFSLQLNSVTPEDTAVYYCARDGQLGLDALDIWGQGTMVTVSSGGGGSGGGGSGGGGSQAGLTQPPAVSVAPGQTASITCGRDNIGSRSVHWYQQKPGQAPVLVVYDDSDRPAGIPERFSGSNYENTATLTISRVEAGDEADYYCQVWGITSDHVVFGGGTKLTVLG
Regarding B2, the EC50 worked out at 0.33 nM with HER3-Fc ECD [1] and 1.19 nM with HER3 (cell surface) [2].

B3: scDb 3-43xCD3, CD3 arm (antibody)
chain: METDTLLLWVLLLWVPGSTGQVQLQQSGPGLVKPSQTLSLTCAISGDSVSSNRAAWNWIRQSPSRGLEWLGRTYYRSKWYNDYAQSLKSRITINPDTPKNQFSLQLNSVTPEDTAVYYCARDGQLGLDALDIWGQGTMVTVSSGGGGSDIQMTQSPSSLSASVGDRVTITCRASQDIRNYLNWYQQKPGKAPKLLIYYTSRLHSGVPSRFSGSGSGTDFTFTISSLQPEDIATYYCQQGNTLPWTFGQGTKLEIKRGGGGSGGGGSGGGGSQVQLVQSGAEVKKPGSSVKVSCKASGGTFSGYTMNWVRQAPGQGLEWMGLINPYKGVSTYNGKFKDRVTITADKSTSTAYMELSSLRSEDTAVYYCARSGYYGDSDWYFDVWGQGTLVTVSSGGGGSQAGLTQPPAVSVAPGQTASITCGRDNIGSRSVHWYQQKPGQAPVLVVYDDSDRPAGIPERFSGSNYENTATLTISRVEAGDEADYYCQVWGITSDHVVFGGGTKLTVLAAAHHHHHH
Regarding B3, in the assay with CD3 (Jurkat cells), the concentration for a half-maximal effect (EC50) is 2.4 nM and 3.1 nM.

B4: scDb 4D5x3-43-Fc, HER3 arm (antibody, V domains shown)
VH: QVQLQQSGPGLVKPSQTLSLTCAISGDSVSSNRAAWNWIRQSPSRGLEWLGRTYYRSKWYNDYAQSLKSRITINPDTPKNQFSLQLNSVTPEDTAVYYCARDGQLGLDALDIWGQGTMVTVSS
VL: QAGLTQPPAVSVAPGQTASITCGRDNIGSRSVHWYQQKPGQAPVLVVYDDSDRPAGIPERFSGSNYENTATLTISRVEAGDEADYYCQVWGITSDHVVFGGGTKLTVLG
Take B4: in the assay with HER3-His ECD [3], a half-maximal response (EC50) required 1.9 nM.

B5: scDb 2-35x3-43-Fc, HER3 arm (antibody, V domains shown)
VH: B4 VH
VL: B4 VL
Turning to B5, in the assay with HER3-His ECD [3], the EC50 came out at 0.24 nM.

B6: scFv3-43-scDb3-43xhuU3-scFv3-43, HER3 arms (antibody, V domains shown)
VH: B4 VH
VL: B4 VL
B6 showed a half-maximal effective concentration (EC50) with HER3 (cell surface) [4] of 0.0173 nM.

B7: scDb 3-43xCD3-scFv 3-43, HER3 arms (antibody, V domains shown)
VH: B4 VH
VL: B4 VL
Turning to B7, the EC50 in the assay with HER3-Fc ECD [5] is 0.81 nM; with HER3 (cell surface) [4], 0.0316 nM and 0.0314 nM.

B8: scDb 3-43xCD3, HER3 arm (antibody, V domains shown)
VH: B4 VH
VL: B4 VL
As for B8, the EC50 with HER3-Fc ECD [5] was 3.3 nM and 4.87 nM; with HER3 (cell surface) [4] it was 1.1 nM; in the assay with HER3 (cell surface) [6] it was 1.1 nM.

B9: scDb4D5x3-43-LL, HER3 arm (antibody, V domains shown)
VH: B4 VH
VL: B4 VL
For the molecule B9, the concentration giving a half-maximal response (EC50) with HER3-Fc ECD [5] turned out to be 0.93 nM.

B10: scDb hu225x3-43-Fc, HER3 arm (antibody, V domains shown)
VH: B4 VH
VL: B4 VL
On to B10, for which it took 0.24 nM to reach a half-maximal effect with HER3-His ECD [7] (EC50).

B11: scDbhu225x3-43-Fc (GGGGS), HER3 arm (antibody, V domains shown)
VH: B4 VH
VL: B4 VL
As for B11, in the assay with HER3-His ECD [3], a half-maximal response (EC50) required 0.2 nM.

B12: Db3-43xhu225-Ig, EGFR arm (antibody)
chain 1: EVQLVESGGGLVQPGGSLRLSCAASGFSLTNYGVHWVRQAPGKGLEWLGVIWSGGNTDYNTPFTSRFTISRDNSKNTLYLQMNSLRAEDTAVYYCARALTYYDYEFAYWGQGTTVTVSSGGGGSQAGLTQPPAVSVAPGQTASITCGRDNIGSRSVHWYQQKPGQAPVLVVYDDSDRPAGIPERFSGSNYENTATLTISRVEAGDEADYYCQVWGITSDHVVFGGGTKLTVLASTKGPSVFPLAPSSKSTSGGTAALGCLVKDYFPEPVTVSWNSGALTSGVHTFPAVLQSSGLYSLSSVVTVPSSSLGTQTYICNVNHKPSNTKVDKKVEPKSCDKTHTCPPCPAPPVAGPSVFLFPPKPKDTLMISRTPEVTCVVVDVSHEDPEVKFNWYVDGVEVHNAKTKPREEQYNSTYRVVSVLTVLHQDWLNGKEYKCKVSNKGLPSSIEKTISKAKGQPREPQVYTLPPSRDELTKNQVSLTCLVKGFYPSDIAVEWESNGQPENNYKTTPPVLDSDGSFFLYSKLTVDKSRWQQGNVFSCSVMHEALHNHYTQKSLSLSPGK
chain 2: QVQLQQSGPGLVKPSQTLSLTCAISGDSVSSNRAAWNWIRQSPSRGLEWLGRTYYRSKWYNDYAQSLKSRITINPDTPKNQFSLQLNSVTPEDTAVYYCARDGQLGLDALDIWGQGTMVTVSSGGGGSDIQLTQSPSFLSASVGDRVTITCRASQSIGTNIHWYQQKPGKAPKLLIKYASESISGVPSRFSGSGSGTEFTLTISSLQPEDFATYYCQQNNNWPTTFGAGTKLEIKRTVAAPSVFIFPPSDEQLKSGTASVVCLLNNFYPREAKVQWKVDNALQSGNSQESVTEQDSKDSTYSLSSTLTLSKADYEKHKVYACEVTHQGLSSPVTKSFNRGEC
As for B12, the values for the EC50 with EGFR ECD and in the assay with EGFR (cell surface) were 0.19 nM and 0.14 nM, respectively.
